Test results as given in article PMC6533540, “DprA Is Essential for Natural Competence in Riemerella anatipestifer and Has a Conserved Evolutionary Mechanism”.

T1: DprA (DprARa) (Riemerella anatipestifer ATCC11845, UniProt E4TBU2 1-367)
T1 sequence: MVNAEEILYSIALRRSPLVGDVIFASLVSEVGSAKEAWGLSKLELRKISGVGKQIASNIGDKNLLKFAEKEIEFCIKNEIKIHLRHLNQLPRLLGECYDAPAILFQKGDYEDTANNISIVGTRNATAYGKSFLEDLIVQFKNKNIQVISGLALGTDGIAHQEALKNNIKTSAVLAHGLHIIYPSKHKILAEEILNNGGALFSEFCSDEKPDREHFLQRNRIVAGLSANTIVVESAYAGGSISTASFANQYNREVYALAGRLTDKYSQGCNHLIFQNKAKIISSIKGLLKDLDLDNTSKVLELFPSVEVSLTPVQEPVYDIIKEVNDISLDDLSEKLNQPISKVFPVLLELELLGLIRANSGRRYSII

B1: dsDNA annealed from RA-ssDNA1 (dsDNA)
DNA 1: TAGGCTCTGCTAAGGAAGCGTGGGGTCTGTCTAAGTTGGA
DNA 2: TCCAACTTAGACAGACCCCACGCTTCCTTAGCAGAGCCTA

Target: T1, DprA (DprARa)
Test: EMSA; 1-20 uM DprA; 25 mM HEPES pH 7.0, 150 mM NaCl, 10% glycerol, 1 mM DTT, 0.05% IGEPAL, 30 min at 30 C; 8% native PAGE in 0.5x TBE on ice
Details: protein: recombinant, tags: C-terminal His6, chain copies: 2, label: biotin

| Binder | binding result | binding result (blunt) |
| --- | --- | --- |
| TAGGCTCTGCTAAGGAAGCGTGGGGTCTGTCTAAGTTGGA (ssDNA) [RA-ssDNA1] | binds |  |
| B1 |  | binds |
| AAAAACTACGGAACTGACTAAAGGCAGAAAAACTAAACGG (ssDNA) [RA-ssDNA2] | binds |  |
